Laboratory results as given in patent US11603409B2, “Humanized DR4 antibody gene having apoptosis-inducing activity and dual-acting chimeric antigen receptor T cell or natural killer cell therapeutic agent using same” (GENEUIN-TECH CO., LTD., priority 2017, dated 2023).

Legend:
[1] = test system: HEK293 cells which do not express DR4; assay: Apoptosis induction by secretory DR4 scFv protein, MTT method, HEK293 control cells; type: cell-based, human; details: HEK293 cells not expressing DR4; protein added to culture medium at low and high concentrations; FIG. 4(A)
Experimental: (§1) To this end, apoptosis-inducing effects of secretory humanized DR4 scFv antibody recombinant protein were analyzed using HeLa cells, a cervical cancer cell line expressing DR4 on the cell surface, and HCT-116 cells, a colon cancer cell line. […] Each of these three cells was inoculated in a culture dish and cultured overnight, and then the secretory humanized DR4 scFv antibody recombinant protein was added to the culture medium, and the degree of death of the cells during culturing was determined by MTT method (Cyto X™ Cell viability assay kit, LPS solution, Korea).

[2] = test system: HeLa cells, a cervical cancer cell line expressing DR4; assay: Apoptosis induction by secretory DR4 scFv protein, MTT method, HeLa cells; type: cell-based; details: low and high concentrations, FIG. 4(B)
Experimental: as §1

[3] = test system: HCT-116 cells, a colon cancer cell line; assay: Apoptosis induction by secretory DR4 scFv protein, MTT method, HCT-116 cells; type: cell-based; details: HCT-116 cells expressing DR4; low and high concentrations; FIG. 4(C)
Experimental: as §1

B1: secretory humanized DR4 scFv antibody recombinant protein: Secreted humanized anti-DR4 scFv (SEQ ID NO: 1) with isoleucine zipper, Flag and His6 tags, expressed from pCMVFL-srkDR4 in HEK293 cells (protein)
scFv: EVQLVESGGGLVQPGGSLRLSCSASGFTFSSYSMQWVRQAPGKGLEYVAGIRSDGRYTNYGAAVKGRATISRDNSKNTVYLQMNSLRAEDTAVYYCAKGAYGYCGSTCAPYLGQIDAWGQGTLVTVSSGSTSGSGKPGSGEGSTKGSYELTQPPSVSVSPGQTVRITCSGGRYTYGWFQQKPGQAPVTVIYGNDKRPSNIPSRFSGSTSGSTVTLTISGVQAEDEADYYCGGADFSAGLFGGGTKLTVL
modifications: left off: small tags and cut ends; a dimerising Fc or GST
[1]
  apoptosis effect (degree of death of the cells by MTT method): not observed
[2]
  apoptosis effect (degree of death of the cells by MTT method): apoptosis increased in proportion to the concentration
[3]
  apoptosis effect (degree of death of the cells by MTT method): apoptosis increased in proportion to the concentration
